Assay results published in US20260008852A1 (CRYSTAL BIOSCIENCE, published 2026).

T1: B7-H3 on CHO-K1 cells stably transfected with B7-H3 (GenScript #M00536) (UniProt Q5ZPR3 29-534, limits assumed)
T1 sequence (looked up): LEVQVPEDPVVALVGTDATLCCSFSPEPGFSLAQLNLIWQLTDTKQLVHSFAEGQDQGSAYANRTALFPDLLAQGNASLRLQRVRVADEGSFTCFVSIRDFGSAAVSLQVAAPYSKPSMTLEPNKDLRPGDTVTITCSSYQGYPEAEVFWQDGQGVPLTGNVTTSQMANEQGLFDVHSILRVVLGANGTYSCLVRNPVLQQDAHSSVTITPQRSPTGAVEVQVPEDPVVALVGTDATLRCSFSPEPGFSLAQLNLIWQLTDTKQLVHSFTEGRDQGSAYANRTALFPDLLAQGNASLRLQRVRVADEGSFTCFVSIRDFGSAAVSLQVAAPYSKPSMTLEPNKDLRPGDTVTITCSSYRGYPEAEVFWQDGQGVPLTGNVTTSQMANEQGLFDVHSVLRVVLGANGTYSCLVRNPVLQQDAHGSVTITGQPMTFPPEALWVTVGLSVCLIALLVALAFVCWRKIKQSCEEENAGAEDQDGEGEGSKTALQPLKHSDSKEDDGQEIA

T2: His-tagged cynomolgus monkey B7-H3 (cynomolgus monkey)
T2 chain: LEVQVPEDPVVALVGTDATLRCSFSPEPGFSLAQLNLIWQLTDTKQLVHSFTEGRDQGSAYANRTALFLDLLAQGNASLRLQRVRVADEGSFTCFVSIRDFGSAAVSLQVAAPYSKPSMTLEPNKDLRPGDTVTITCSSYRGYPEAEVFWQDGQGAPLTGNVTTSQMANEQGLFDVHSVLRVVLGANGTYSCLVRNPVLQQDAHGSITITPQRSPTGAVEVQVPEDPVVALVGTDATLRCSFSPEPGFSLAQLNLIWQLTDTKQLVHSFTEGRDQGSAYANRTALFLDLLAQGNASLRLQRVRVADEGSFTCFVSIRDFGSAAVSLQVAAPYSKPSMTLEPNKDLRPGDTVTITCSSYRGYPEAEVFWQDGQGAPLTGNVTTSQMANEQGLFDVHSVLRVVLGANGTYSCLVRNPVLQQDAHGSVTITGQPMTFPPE

T3: His-tagged mouse B7-H3 (mouse, UniProt Q8VE98 29-244, limits assumed)
T3 construct: Bought His-tagged protein coated on the ELISA plate; also called mu B7-H3; murine B7-H3
T3 sequence (looked up): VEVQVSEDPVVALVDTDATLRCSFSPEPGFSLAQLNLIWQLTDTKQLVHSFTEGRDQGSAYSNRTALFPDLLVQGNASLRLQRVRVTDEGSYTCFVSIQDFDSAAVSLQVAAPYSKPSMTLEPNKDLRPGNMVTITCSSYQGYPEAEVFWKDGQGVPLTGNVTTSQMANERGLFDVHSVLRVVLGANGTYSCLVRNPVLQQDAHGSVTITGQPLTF

T4: His-tagged human B7-H3 (human, UniProt Q5ZPR3-2 29-245, limits assumed)
T4 construct: Bought His-tagged protein coated on the ELISA plate; also called hu B7-H3; CD276
T4 sequence (looked up): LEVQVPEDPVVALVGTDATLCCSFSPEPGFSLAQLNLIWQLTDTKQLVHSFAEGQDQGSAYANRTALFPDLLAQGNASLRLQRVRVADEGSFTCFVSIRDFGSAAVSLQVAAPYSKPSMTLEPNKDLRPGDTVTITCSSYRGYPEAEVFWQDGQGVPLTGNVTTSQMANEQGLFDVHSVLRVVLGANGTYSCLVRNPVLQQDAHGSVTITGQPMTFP

T5: B7-H3 on B7-H3-expressing CHO cells (Genescript) (UniProt Q5ZPR3 29-534, limits assumed)
T5 construct: whole, on cells; also called CHO-K1/B7-H3; MFI B7-H3
T5 sequence (looked up): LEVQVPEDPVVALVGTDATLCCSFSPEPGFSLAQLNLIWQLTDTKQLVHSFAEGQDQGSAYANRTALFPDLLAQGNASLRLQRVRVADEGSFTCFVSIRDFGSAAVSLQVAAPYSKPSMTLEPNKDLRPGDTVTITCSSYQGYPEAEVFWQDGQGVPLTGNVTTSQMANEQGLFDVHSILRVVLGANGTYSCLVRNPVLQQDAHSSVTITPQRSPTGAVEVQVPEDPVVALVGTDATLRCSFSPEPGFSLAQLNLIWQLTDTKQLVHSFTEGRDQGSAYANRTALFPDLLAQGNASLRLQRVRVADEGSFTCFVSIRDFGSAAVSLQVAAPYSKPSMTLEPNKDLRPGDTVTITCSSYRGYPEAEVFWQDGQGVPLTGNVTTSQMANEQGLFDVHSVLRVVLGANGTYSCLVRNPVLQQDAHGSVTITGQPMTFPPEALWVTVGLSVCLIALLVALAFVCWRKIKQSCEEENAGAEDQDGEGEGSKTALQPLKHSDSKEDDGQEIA


Key:
[1] = biological target: T1, B7-H3 on CHO-K1 cells stably …; assay: cell-based or functional assay
[2] = biological target: T2, His-tagged cynomolgus monkey B7-H3; assay: ELISA, coated His-tagged antigen, scFv-Fc 1 ug/ml
Procedure: (§1) The variable regions of heavy and light chains were cloned and assembled into a single chain Fv-Fc (ScFv-Fc) mammalian expression vector. Sanger sequencing was performed by GeneWiz and sequences were evaluated using DNASTAR Lasergene 15. Unique scFv-Fes were transiently expressed in Expi293 cells (Life Technologies, #A14527) grown in Expi293 Expression Medium (Life Technologies, #A1435101) after transfection using the ExpiFectamine transfection reagent and supplements (Life Technologies, #A14524). Cells were incubated for 3-5 days with shaking at 37° C. in a 5% CO2 humidified incubator.

[3] = biological target: T3, His-tagged mouse B7-H3; assay: ELISA, coated His-tagged antigen, scFv-Fc 1 ug/ml
Procedure: as §1

[4] = biological target: T4, His-tagged human B7-H3; assay: ELISA, coated His-tagged antigen, scFv-Fc 1 ug/ml
Procedure: as §1

[5] = biological target: T5, B7-H3 on B7-H3-expressing CHO cells …; assay: flow cytometry, B7-H3-expressing CHO cells, 10 ug/ml
Procedure: Binding of anti-B7-H3 antibodies to cell lines was assessed by flow cytometry. Briefly, approximately 1.5 e5 B7-H3-expressing CHO cells (Genescript) or parent CHO cells (ATCC) were resuspended in FACS buffer (PBS/1% BSA/0.01% NaN3) containing 10 μg/ml of anti-B7-H3 antibodies and incubated for 60 min on ice. […] Cells were then washed twice, resuspended in FACS buffer, and read on an Attune Flow Cytometer (Life Technologies). Data are expressed as Mean Fluorescent Intensities (MFI).

[6] = biological target: T4, His-tagged human B7-H3; assay: ELISA OD450 on hu B7-H3 over OD450 on mu B7-H3
Procedure: as §1

Binder | ADCC reporter assay, EC50 Value, CHOK1/B7-H3 cells [1] | ADCC reporter assay, Max RLU, CHOK1/B7-H3 cells [1] | ELISA OD450 @ 1 ug/ml [2] | ELISA OD450 @ 1 ug/ml [3] | ELISA OD450 @ 1 ug/ml [4] | MFI @ 10 ug/ml [5] | hu:mu ratio [6]
40633p1.2.D11 IgG (antibody, V domains shown) VH: EVQLESGGGLVQPGGSLRLSCAASGFTVSYYGMSWVRQAPGKGLEWVSAIKQDGSEKYYADSVKGRFTISRDNSKNTLYLQMNSLRAEDTAVYYCARHWNDYSNAMNVWGQGTTVTVSS VL: QSVLTQPPSASGTPGQRVTISCSGSTSNIAIDFVNWYQQLPGTAPKLLIYTIDQRPSGVPDRFSGSKSGTSASLAISGLQSEDEAVYYCASWDASLNGWVFGRGTKLTVL | 0.107 µg/mL | 510000 RLU |  |  |  |  | 
40633p1.2.D7 IgG (antibody, V domains shown) VH: EVQLLESGGSLVQPGGSLRLSCAASGFTFSSYWMSWVRQAPGKGLEWVSGISSSGSATYYADSVKGRFTISRDNSKNTLYLQMNSLRAEDTAVYYCARWNDYDIMDVWGQGTTVTVSS VL: not shown | 0.0213 µg/mL | 820000 RLU |  |  |  |  | 
40511p1.1.A1 (scFv, V domains shown, Tested as scFv-Fc (Expi293 supernatant)) VH: DVQLVESGGGVVRPGESLRLSCAASGFTFSNYAMNWVRQAPGEGLEWVSRINYKGYNITYYADSVKGRFTISRDNSKNTLYLQMNSLRAEDTAVYYCAKSGSNSNNFFDYWGLGTLVTVSS VL: EIVLTQSPGTLSVSPGERATLSCRASQSVNSKLAWYQQRPGQAPRLLIYDASSRATGIPDRFSGSGSGTDFTLTISRLEPEDFAVYYCQQYKNWPPLTFGGGTKVEIK |  |  | 2.27 OD450 | 1.02 OD450 | 1.9 OD450 | 34100 MFI | 1.87
40579p1.E5 (scFv, V domains shown, Tested as scFv-Fc (Expi293 supernatant)) VH: EVQLLESGGGLVQPGGSLRLSCAASGFTFSDDWMTWVRQAPGKGLEWVSAINWNGNSTHYADSVKGRFTVSRDNSKNTLYLQMNSLRAEDTAVYYCAKSRTTYYSSMDVWGQGTTVTVSS VL: EIVLTQSPGTLSLSPGERATLSCRASQTVGSYLAWYQQKPGQAPRLLIYGASSRATGIPARFSGSGSGTDFTLTISSLQSEDFAVYYCQHYYDWPPYSFGGGTKVEIK |  |  | 2.17 OD450 | 1.44 OD450 | 1.95 OD450 | 89200 MFI | 1.36
40579p1.F7 (scFv, V domains shown, Tested as scFv-Fc (Expi293 supernatant)) VH: EVQLLESGGGLVQPGGSLRLSCAASGFTFSDYYMSWVRQAPGKGLEWVSGISISYGGNAYYADSVKGRFTVSRDNSKNTLYLQMNSLRAEDTAVYYCGRDRSPYQYRSMDVWGQGTTVTVSS VL: EIVLTQSPGTLSLSPGERATLTCRASQSVGDFLAWYQQKPGQAPRLLIYGASTRAAGIPARFRGSGSGTDFTLTISSLQSEDFAVYYCQQYKNWPPLTFGGGTKVEIK |  |  | 2.28 OD450 | 1.53 OD450 | 2.02 OD450 | 64500 MFI | 1.32
40579p1.G1 (scFv, V domains shown, Tested as scFv-Fc (Expi293 supernatant)) VH: EVQLLESGGGLVQPGGSLRLSCAASGFNFSSYWMSWVRQAPGKGLEWVSGISISYGGNAYYADSVKGRFTVSRDNSKNTLYLQMNSLRAEDTAVYYCGRDRSPYQYRSMDVWGQGTTVTVSS VL: EIVLTQSPGTLSLSPGERATLSCRASQSIRSDLAWYQQKPGQAPRLLIYGASSRATGIPARFSGSGSGTEFTLTISSLQSEDFAVYYCQQYNNWPPLTFGGGTKVEIK |  |  | 1.73 OD450 | 1.79 OD450 | 1.73 OD450 | 87100 MFI | 0.966
40579p1.H7 (scFv, V domains shown, Tested as scFv-Fc (Expi293 supernatant)) VH: EVQLLESGGDLVQPGGSLRLSCAASGFNFSSYWMSWVRQAPGKGLEWVSGISISYGGNAYYADSVKGRFTVSRDNSKNTLYLQMNSLRAEDTAVYYCGRDRSPYQYRSMDVWGQGTTVTVSS VL: EIVLTQSPGTLSLSPGERATLSCRASQSIRSDLAWYQQKPGQAPRLLIYGASSRATGIPARFSGSGSGTEFTLTISSLQSEDFAVYYCQQYNNWPPLTFGGGTKVEIK |  |  | 1.73 OD450 | 1.92 OD450 | 1.86 OD450 | 74600 MFI | 0.971
40579p1.H6 (scFv, V domains shown, Tested as scFv-Fc (Expi293 supernatant)) VH: EVQLLESGGGLVQPGGSLRLSCAASGFTVNNAWMSWVRQAPGKGLEWVSAISYGGSIYYADSVKGRFTISRDNSKNTLYLQMNSLRAEDTAVYYCAKHRSTTYNGMDVWGQGTTVTVSS VL: EIVLTQSPGTLSLSPGERATLSCRASQSVGSFLAWYQQKPGQAPRLLIYGANTRAAGIPDRFRGSGNGTDFTLTISSLQSEDFAVYYCQQYYDWPPLTFGGGTKVEIK |  |  | 1.7 OD450 | 1.17 OD450 | 1.49 OD450 | 67600 MFI | 1.28
40633p1.1.A11 (scFv, V domains shown, Tested as scFv-Fc (Expi293 supernatant)) VH: EVQLLESGGDLVQPGGSLRLSCAASGFTFNTYWMNWVRQAPGKGLEWVAGINSKGGVTYYADSVKGRFTISRDNSKNTLYLQMNSLRAEDTAVYYCADWNDYDIMDVWGQGTTVTVSS VL: QSVLTQPPSASGTPGQTITISCSGSSSNVGRRTVNWYQQLPGTAPKLLIYTNAQRPSGVPDRFSGSKSGTSASLAISGLQSEDEADYYCATWDDSLNAWVFGGGTKLTVL |  |  | 1.77 OD450 | 1.27 OD450 | 2.08 OD450 | 64800 MFI | 1.63
40633p1.1.A6 (scFv, V domains shown, Tested as scFv-Fc (Expi293 supernatant)) VH: EVQLLESGGGLVQPGGSLRLSCAASGFSFSNYDMSWVRQAPGKGLEWVAGIRSGSRTYYADSVKGRFTISRDNSKNTLYLQMNSLRAEDTATYYCGRYFNMDVWGQGTTVTVSS VL: QSVLTQPPSASGTPGQRVTISCSGSTFNIGTNLVHWYQQLPGTAPKLLIYLTDRRPSGVPDRFSGSKSGTSASLAISGLQSEDEANYYCATWDDSLNSFLFGGGTKLTVL |  |  | 1.62 OD450 | 1.26 OD450 | 1.88 OD450 | 67800 MFI | 1.49
40633p1.2.C11 (scFv, V domains shown, Tested as scFv-Fc (Expi293 supernatant)) VH: EVQLLESGGGLVQPGGSLRLSCAASGFTFSSYWMSWVRQAPGKGLEWVAGINRNGGSTYYADSVKGRFTISRDNSENTLYLQVNSLRAEDTAVYYCARWNDYDIMDVWGQGTTVTVSS VL: QSVLTQPSSASGTPGQRVTISCSGSSSNVGRRAVNWYQQLPGTAPKLLISNSQRPSGVPDRFSGSKSGTSASLAISGLQSEDEADYYCATWDASLNSWVFGGGTKLTVL |  |  | 0.045 OD450 |  |  | 18300 MFI | 
